# According to patent US20190322748A1 (Hoffmann-La Roche, published 2019):
# Where two headings read alike, the source gives them in different places.
# B1: Tim3_0033 (antibody, V domains shown)
# VH: QGQMHQSGAELVKPGSSVKLSCKTSGFTFSSSFISWLKQKPGQSLEWIAWIYAATGSTSYNQKFTNKAQLTVDTSSSAAYMQFSSLTTEDSAIYYCARHAGYPHYYAMDYWGQGTSVTVSS
# VL: DIQMTQSPASLSASVGETVTITCRASENIFSNLAWYQQKQGKSPQLLVYSATNLGDGVPSRFSGSGSGTQFSLKINSLQPEDFGNYYCQHFYKIPFTFGTGTKLEIK
# B2: PD1-0103-0312 (antibody, human IgG1, V domains shown)
# VH: EVQLLESGGGLVQPGGSLRLSCAASGFSFSSYTMSWVRQAPGKGLEWVATISGGGRDIYYPDSVKGRFTISRDNSKNTLYLQMNSLRAEDTAVYYCVLLTGRVYFALDSWGQGTLVTVSS
# VL: DIVMTQSPDSLAVSLGERATINCKASESVDTSDNSFIHWYQQKPGQSPKLLIYRSSTLESGVPDRFSGSGSGTDFTLTISSLQAEDVAVYYCQQNYDVPWTFGQGTKVEIK
# notes: Humanized
# B3: PD1-0103-0315 (antibody, human IgG1, V domains shown)
# VH: B2 VH
# VL: EIVLTQSPATLSLSPGERATLSCRASESVDTSDNSFIHWYQQKPGQSPRLLIYRSSTLESGIPARFSGSGSGTDFTLTISSLEPEDFAVYYCQQNYDVPWTFGQGTKVEIK
# notes: Humanized
# B4: PD1-0103-0314 (antibody, human IgG1, V domains shown)
# VH: B2 VH
# VL: B3 VL
# notes: Humanized
# B5: PD1-0103-0313 (antibody, human IgG1, V domains shown)
# VH: B2 VH
# VL: DVVMTQSPLSLPVTLGQPASISCRASESVDTSDNSFIHWYQQRPGQSPRLLIYRSSTLESGVPDRFSGSGSGTDFTLKISRVEAEDVGVYYCQQNYDVPWTFGQGTKVEIK
# notes: Humanized
# B6: Tim3_0018MutNS (antibody, V domains shown)
# VH: QVTLKESGPGILQPSQTLSLTCSFSGFSLSTSGMSVGWIRQPSGKGLEWLAHIWLNDDVFFNPALKRRLTISKDTSNNQVFLQIASVVTADTATYYCVRANGYLYALDYWGQGISVTVSS
# VL: QIVLTQSPAIMSASPGQKVTITCSASSSVSYTQWYQQKLGSSPKLWIYDAFKLAPGVPARFSGSGTGTSYSLTISSMEAEDAASYFCHQWSSYPWTFGGGTKLEIK
# B7: Tim3_0026 (antibody, V domains shown)
# VH: QIQLVQSGPELKKPGETVKISCKASGYTFTDYSMHWVKQAPGRGLKWMGYINTETYEPTFGADFKGRFAFSLDTSATTAYLQINSLKTEDTATFFCGGGGYPAYWGQGTVVIVSA
# VL: DVLMTQTPLSLPVSLGDQASISCRSSRTILHSSGNTYLEWYLQKPGQSPKLLIYKVSNRFSGVPDRFSGSGSGTDFTLNISRVEAEDLGVYYCFQDSHVPFTFGTGTKLEIK
# B8: Tim3_0021 (antibody, V domains shown)
# VH: QVQLQQSGPQLVRPGASVQISCKASGYSFTSYLLHWLKQRPGQGLEWIGMIDPSDSETRLNQKFKDKATLTVDKSSSTAYMQLSSPTSEDSAVYYCARDGYYAWYYFDCWGQGTTLTVSS
# VL: DIVLTQSPATLSVTPGDRVSLSCRASQSIGNNLHWYQQKSHESPRLLIKYASHSISGIPSKFSGTGSGTDFTLSFNSVETEDFGMYFCQQSNSWPLTFGAGTKLELK
# B9: 2+2 PD1TIM3_0358 (chimeric PD1-0103 / Tim3-0028) (bispecific antibody, human IgG1, kappa, L234A L235A)
# heavy: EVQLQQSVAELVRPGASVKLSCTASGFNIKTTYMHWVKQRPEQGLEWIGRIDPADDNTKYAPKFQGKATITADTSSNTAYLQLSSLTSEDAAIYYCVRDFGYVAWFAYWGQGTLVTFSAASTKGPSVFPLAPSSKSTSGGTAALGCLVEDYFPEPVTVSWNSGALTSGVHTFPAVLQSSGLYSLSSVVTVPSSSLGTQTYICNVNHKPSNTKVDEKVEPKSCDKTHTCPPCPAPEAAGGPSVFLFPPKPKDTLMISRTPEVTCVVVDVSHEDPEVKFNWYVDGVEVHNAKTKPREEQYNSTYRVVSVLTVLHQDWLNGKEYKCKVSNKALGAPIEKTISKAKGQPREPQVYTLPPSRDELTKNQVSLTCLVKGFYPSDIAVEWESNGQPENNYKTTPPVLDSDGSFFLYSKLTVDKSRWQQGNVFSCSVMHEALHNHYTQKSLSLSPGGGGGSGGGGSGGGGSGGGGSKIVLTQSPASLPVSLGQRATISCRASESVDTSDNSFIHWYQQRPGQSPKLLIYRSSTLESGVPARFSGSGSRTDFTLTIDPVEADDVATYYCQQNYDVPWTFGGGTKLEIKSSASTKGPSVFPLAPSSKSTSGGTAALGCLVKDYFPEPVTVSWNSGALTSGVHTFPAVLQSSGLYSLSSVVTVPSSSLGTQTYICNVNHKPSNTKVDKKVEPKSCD
# light 1: NIVMTPTPKFLPVSSGDRVTMTCRASQSVDNYVAWYQQKPGQSPKLLIYYASNRYIGVPDRFTGSGSGTDFTFTISSVQVEDLAVYFCQQHYSSPYTFGSGTKLEIKRTVAAPSVFIFPPSDRKLKSGTASVVCLLNNFYPREAKVQWKVDNALQSGNSQESVTEQDSKDSTYSLSSTLTLSKADYEKHKVYACEVTHQG
# light 2: EVILVESGGGLVKPGGSLKLSCAASGFSFSSYTMSWVRQTPEKRLDWVATISGGGRDIYYPDSVKGRFTISRDNAKNTLYLEMSSLMSEDTALYYCVLLTGRVYFALDSWGQGTSVTVSSASVAAPSVFIFPPSDEQLKSGTASVVCLLNNFYPREAKVQWKVDNALQSGNSQESVTEQDSKDSTYSLSSTLTLSKADYEKHKVYACEVTHQGLSSPVTKSFNRGEC
# notes: also called PD1TIM3-0358 (2 + 2); Bispec AB 0358 (2+2)
# How the values were obtained:
# [1] = molecular target: T1, full-length human Tim3 on cells (CHO-K1 stably transfected with plasmid 15312_hTIM3-fl_pUC_Neo) (human, UniProt Q8TDQ0 22-301); assay: cell-based or functional assay
# [2] = molecular target: T1, full-length human Tim3 on cells (CHO-K1 …); assay: cell ELISA on CHO-K1 cells with full-length human Tim3
# [3] = molecular target: T2, biotinylated cynoPD1-ECD-Biotin (cynomolgus); assay: ELISA on coated cynoPD1-ECD-Biotin
# T2 construct: extracellular domain; also called cyPD1
# [4] = molecular target: T2, biotinylated cynoPD1-ECD-Biotin; assay: ELISA, cynomolgus cross-reactivity
# [5] = molecular target: T3, biotinylated PD1-ECD-AviHis (human, UniProt Q15116 25-170, biotinylated, site not stated); assay: ELISA on coated biotinylated PD1-ECD-AviHis
# T3 construct: also called huPD1; hu PD1
# [6] = molecular target: T3, biotinylated PD1-ECD-AviHis; assay: ELISA on coated biotinylated PD1-ECD-AviHis; remark: listed apart in the source
# [7] = molecular target: T4, full-length human PD1 on cells (CHO-K1 stably transfected with plasmid 15311_hPD1-fl_pUC_Neo) (human, UniProt Q15116 25-288); assay: cell ELISA on CHO-K1 cells with full-length human PD1
# T4 construct: Also used as the target of the MLR and reporter read-outs; also called CHO-PD1; PD1 on primary human T cells in the MLR
# human PD1-ECD [8] = molecular target: T5, human PD1-ECD (human, UniProt Q15116 25-170); assay: SPR Biacore T200, Ab captured on anti-human IgG, 25 C
# T5 construct: SPR analyte; also called hu PD1-ECD
# human PD1-ECD [9] = molecular target: T5, human PD1-ECD; assay: SPR; row head 'Affinity KD 37°C [nM] *)', first of two values, footnote not explained
# human PD1-ECD [10] = molecular target: T5, human PD1-ECD; assay: SPR; row head 'Affinity KD 37°C [nM] *)', second of two values (equals the 25 C value of Table 9)
# Tim3-ECD-His-Biotin [11] = molecular target: T6, Tim3-ECD-His-Biotin (human, UniProt Q8TDQ0 22-202, biotinylated with BirA Ligase, site not stated); assay: ELISA on human Tim3
# T6 construct: also called human Tim3 (ELISA); Biochem Human
# [12] = molecular target: T1, full-length human Tim3 on cells (CHO-K1 …); assay: cellular ELISA on CHO-TIM3
# Tim3-ECD-His-Biotin [13] = molecular target: T6, Tim3-ECD-His-Biotin; assay: ELISA on human Tim3 (values in relation to the samples max value)
# [14] = molecular target: T1, full-length human Tim3 on cells (CHO-K1 …); assay: cellular ELISA on CHO-TIM3 (values in relation to the samples max value)
# [15] = molecular target: T4, full-length human PD1 on cells (CHO-K1 …); assay: cell-based or functional assay
# [16] = molecular target: T3, biotinylated PD1-ECD-AviHis; assay: ELISA on coated biotinylated PD1-ECD-AviHis; remark: listed apart in the source
# [17] = molecular target: T7, biotinylated TIM3-ECD-AviHis (human, UniProt Q8TDQ0 22-202, biotinylated, site not stated); assay: ELISA on coated biotinylated TIM3-ECD-AviHis
# T7 construct: also called huTIM3; Hu TIM3
# human PD1-ECD [18] = molecular target: T5, human PD1-ECD; assay: SPR Biacore T200, Ab captured on anti-human Fc IgG, hu PD1-ECD in solution, 25 C
# monomeric human Tim3-ECD = molecular target: T8, monomeric human Tim3-ECD (human, UniProt Q8TDQ0 22-202); assay: SPR Biacore T200, Ab captured on anti-human Fab IgG, hu Tim3-ECD in solution, 25 C
# T8 construct: SPR analyte; also called huTim3; hu Tim3-ECD
Binder,"IFN-gamma release in MLR at 1 µg/ml antibody, % of rec hu IL-2 (20 EU/ml) = 100% [1]","IFN-gamma release in MLR at 10 µg/ml antibody, % of rec hu IL-2 (20 EU/ml) = 100% [1]","IFN-gamma release in MLR at 40 µg/ml antibody, % of rec hu IL-2 (20 EU/ml) = 100% [1]",EC50 [2],EC50 [3],EC50 [4],EC50 [5],EC50 [6],EC50 [7],Kd (human PD1-ECD [8]),koff (human PD1-ECD [8]),kon (human PD1-ECD [8]),Kd (human PD1-ECD [9]),Kd (human PD1-ECD [10]),also measured
B1,0%,30%,35%,3.71 µg/mL,,,,,,,,,,,
B2,,,,,0.0083 µg/mL,0.08 nM,0.011 µg/mL,0.1 nM,0.0101 µg/mL,1.8 nM,0.000345 s⁻¹,195000 M⁻¹ s⁻¹,1.5 nM,1.8 nM,
B3,,,,,0.0079 µg/mL,0.04 nM,0.01 µg/mL,0.06 nM,0.0073 µg/mL,1.5 nM,0.000291 s⁻¹,189000 M⁻¹ s⁻¹,1.7 nM,1.5 nM,
B4,,,,,0.0083 µg/mL,0.05 nM,0.011 µg/mL,0.07 nM,0.0077 µg/mL,1.5 nM,0.000279 s⁻¹,187000 M⁻¹ s⁻¹,1.6 nM,1.5 nM,
B5,,,,,0.011 µg/mL,0.06 nM,0.015 µg/mL,0.07 nM,0.0108 µg/mL,2.3 nM,0.000367 s⁻¹,160000 M⁻¹ s⁻¹,1.9 nM,2.3 nM,
B6,,,,,,,,,,,,,,,Inflexion point (Tim3-ECD-His-Biotin [11]): 6.5 ng/mL; Inflexion point [12]: 11.1 ng/mL; EC50 (Tim3-ECD-His-Biotin [13]): 0.0103 µg/mL; EC50 [14]: 0.0112 µg/mL
B7,18%,16%,25%,0.069 µg/mL,,,,,,,,,,,
B8,101%,108%,112%,0.073 µg/mL,,,,,,,,,,,
B9,,,,,,,,,,,,,,,"EC50 of IFN-gamma secretion in MLR, donors D1 + D3 [15]: 6.8 nM; EC50 of IFN-gamma secretion in MLR, donors D2 + D4 [15]: 5.7 nM; EC50 [16]: 0.08 nM; EC50 [17]: 0.19 nM; Kd (human PD1-ECD [18]): 0.3 nM; Kd (monomeric human Tim3-ECD): 240 nM"
